Results from PMC3755335, “Inactivation of the phosphoglucomutase gene pgm in Corynebacterium glutamicum affects cell shape and glycogen metabolism” (Bioscience Reports, 2013).

How the values were obtained:
[1] = target: the molecule itself; test: SEC; HiLoad XK16/60 Superdex 200 PrepGrade, 0.02 M sodium phosphate, 0.15 M NaCl, pH 7.4, 0.5 ml/min; fractions screened by Pgm activity; retention volume compared with standard proteins (LMW and HMW calibration kits)
[2] = substrate: O=P(O)(O)O[C@H]1O[C@H](CO)[C@@H](O)[C@H](O)[C@H]1O; test: coupled assay with glc-6-P dehydrogenase (NADP reduction); assay type: biochemical, Corynebacterium glutamicum; settings: 100 mM Tris/HCl pH 7.4, 10 mM MgCl2, 1 mM NADP, 2 units glc-6-P dehydrogenase, glc-1-P 0.05–20 mM

B1: phosphoglucomutase Pgm (main Pgm isoenzyme, encoded by pgm, cg2800) of Corynebacterium glutamicum (enzyme, UniProt Q8NMN0 1-554, looked up)
chain: MAHERAGQLAQPEDLIDVAELVTAYFTRKPDVNNPDQQVAFGTSGHRGSALDSAFNEDHILATTQAIVDYRNQQPKNWVGPLFIGRDTHALSEPAMISALEVLIANDVEVLVDADGRYTPTPAVSHAILRHNDGIILGTAGPSRPYADGIVITPSHNPPRDGGFKYNPANGGPADTDATDWIANRANDILRGDLADVKRVPVSGVLDERTTAYDFKGIYIADLPNVVNIDAIREAGVRIGADPMGGASVDYWGAIAETHGLNLTVVNPHVDSTFRFMTLDTDGKIRMDCSSPHAMASLIDNRDKFDVATGNDADADRHGIVTPDAGLMNPNHYLAVAIEYLFAHRPGWSADTAVGKTLVSSSMIDRVVAQLGRTLVEVPVGFKWFVPGLISGEIGFGGEESAGASFLRMDGTTWSTDKDGLILDLLAAEIIAVTGKTPSQRYAELAEEFGAPAYARTDAEANREQKAILKALSPEQVTATELAGEAITAKLTEAPGNGAAIGGLKVTTENAWFAARPSGTEDKYKIYAESFKGEEHLAQVQKEAQALVSEVLGQ
notes: Phosphoglucomutase Pgm of Corynebacterium glutamicum, ORF cg2800 (pgm), native enzyme; band of approx. 60 kDa on SDS/PAGE assigned to cg2800 by MALDI-TOF-MS peptide fingerprinting; Endogenous, untagged enzyme; the final gel filtration fraction still held a second band (approx. 80 kDa, cg2523, malQ); also called α-Pgm; pgm gene product
stoichiometry N [1]: 2 | Km [2]: 1410 ± 230 µM
